Where no end group is shown, it is not given here. [ ]: non-standard residue; d: D form. Aib = CC(C)(N)C(=O)O
B1: Compound A45 (peptide)
peptide: YSHGTFTSDYSKYLD[Aib]KRAQEFV[Aib]WLEDEKRNKPPPA-OH
modifications: N-terminus assumed
SMILES: CC(C)C[C@H](NC(=O)[C@H](Cc1ccc(O)cc1)NC(=O)[C@H](CCCCN)NC(=O)[C@H](CO)NC(=O)[C@H](Cc1ccc(O)cc1)NC(=O)[C@H](CC(=O)O)NC(=O)[C@H](CO)NC(=O)[C@@H](NC(=O)[C@H](Cc1ccccc1)NC(=O)[C@@H](NC(=O)CNC(=O)[C@H](Cc1c[nH]cn1)NC(=O)[C@H](CO)NC(=O)[C@@H](N)Cc1ccc(O)cc1)[C@@H](C)O)[C@@H](C)O)C(=O)N[C@@H](CC(=O)O)C(=O)NC(C)(C)C(=O)N[C@@H](CCCCN)C(=O)N[C@@H](CCCNC(=N)N)C(=O)N[C@@H](C)C(=O)N[C@@H](CCC(N)=O)C(=O)N[C@@H](CCC(=O)O)C(=O)N[C@@H](Cc1ccccc1)C(=O)N[C@H](C(=O)NC(C)(C)C(=O)N[C@@H](Cc1c[nH]c2ccccc12)C(=O)N[C@@H](CC(C)C)C(=O)N[C@@H](CCC(=O)O)C(=O)N[C@@H](CC(=O)O)C(=O)N[C@@H](CCC(=O)O)C(=O)N[C@@H](CCCCN)C(=O)N[C@@H](CCCNC(=N)N)C(=O)N[C@@H](CC(N)=O)C(=O)N[C@@H](CCCCN)C(=O)N1CCC[C@H]1C(=O)N1CCC[C@H]1C(=O)N1CCC[C@H]1C(=O)N[C@@H](C)C(=O)O)C(C)C
B2: Compound A46 (peptide)
peptide: YSHGTFTSDYSKYLD[Aib]KRAQEFV[Aib]WLEDEKRNKPPIA-OH
modifications: N-terminus assumed
SMILES: CC[C@H](C)[C@H](NC(=O)[C@@H]1CCCN1C(=O)[C@@H]1CCCN1C(=O)[C@H](CCCCN)NC(=O)[C@H](CC(N)=O)NC(=O)[C@H](CCCNC(=N)N)NC(=O)[C@H](CCCCN)NC(=O)[C@H](CCC(=O)O)NC(=O)[C@H](CC(=O)O)NC(=O)[C@H](CCC(=O)O)NC(=O)[C@H](CC(C)C)NC(=O)[C@H](Cc1c[nH]c2ccccc12)NC(=O)C(C)(C)NC(=O)[C@@H](NC(=O)[C@H](Cc1ccccc1)NC(=O)[C@H](CCC(=O)O)NC(=O)[C@H](CCC(N)=O)NC(=O)[C@H](C)NC(=O)[C@H](CCCNC(=N)N)NC(=O)[C@H](CCCCN)NC(=O)C(C)(C)NC(=O)[C@H](CC(=O)O)NC(=O)[C@H](CC(C)C)NC(=O)[C@H](Cc1ccc(O)cc1)NC(=O)[C@H](CCCCN)NC(=O)[C@H](CO)NC(=O)[C@H](Cc1ccc(O)cc1)NC(=O)[C@H](CC(=O)O)NC(=O)[C@H](CO)NC(=O)[C@@H](NC(=O)[C@H](Cc1ccccc1)NC(=O)[C@@H](NC(=O)CNC(=O)[C@H](Cc1c[nH]cn1)NC(=O)[C@H](CO)NC(=O)[C@@H](N)Cc1ccc(O)cc1)[C@@H](C)O)[C@@H](C)O)C(C)C)C(=O)N[C@@H](C)C(=O)O
B3: Compound A47 (peptide)
peptide: YSHGTFTSDYSKYLD[Aib]KRAQEFV[Aib]WLEDEKRNKNPPS-OH
modifications: N-terminus assumed
SMILES: CC(C)C[C@H](NC(=O)[C@H](Cc1ccc(O)cc1)NC(=O)[C@H](CCCCN)NC(=O)[C@H](CO)NC(=O)[C@H](Cc1ccc(O)cc1)NC(=O)[C@H](CC(=O)O)NC(=O)[C@H](CO)NC(=O)[C@@H](NC(=O)[C@H](Cc1ccccc1)NC(=O)[C@@H](NC(=O)CNC(=O)[C@H](Cc1c[nH]cn1)NC(=O)[C@H](CO)NC(=O)[C@@H](N)Cc1ccc(O)cc1)[C@@H](C)O)[C@@H](C)O)C(=O)N[C@@H](CC(=O)O)C(=O)NC(C)(C)C(=O)N[C@@H](CCCCN)C(=O)N[C@@H](CCCNC(=N)N)C(=O)N[C@@H](C)C(=O)N[C@@H](CCC(N)=O)C(=O)N[C@@H](CCC(=O)O)C(=O)N[C@@H](Cc1ccccc1)C(=O)N[C@H](C(=O)NC(C)(C)C(=O)N[C@@H](Cc1c[nH]c2ccccc12)C(=O)N[C@@H](CC(C)C)C(=O)N[C@@H](CCC(=O)O)C(=O)N[C@@H](CC(=O)O)C(=O)N[C@@H](CCC(=O)O)C(=O)N[C@@H](CCCCN)C(=O)N[C@@H](CCCNC(=N)N)C(=O)N[C@@H](CC(N)=O)C(=O)N[C@@H](CCCCN)C(=O)N[C@@H](CC(N)=O)C(=O)N1CCC[C@H]1C(=O)N1CCC[C@H]1C(=O)N[C@@H](CO)C(=O)O)C(C)C

Experiments:
[1] = target: human GLP-1 receptor (GLP-1R) (human, UniProt P43220 24-463); assay: cell-based or functional assay
Sequence of human GLP-1 receptor (GLP-1R) (P43220 24-463): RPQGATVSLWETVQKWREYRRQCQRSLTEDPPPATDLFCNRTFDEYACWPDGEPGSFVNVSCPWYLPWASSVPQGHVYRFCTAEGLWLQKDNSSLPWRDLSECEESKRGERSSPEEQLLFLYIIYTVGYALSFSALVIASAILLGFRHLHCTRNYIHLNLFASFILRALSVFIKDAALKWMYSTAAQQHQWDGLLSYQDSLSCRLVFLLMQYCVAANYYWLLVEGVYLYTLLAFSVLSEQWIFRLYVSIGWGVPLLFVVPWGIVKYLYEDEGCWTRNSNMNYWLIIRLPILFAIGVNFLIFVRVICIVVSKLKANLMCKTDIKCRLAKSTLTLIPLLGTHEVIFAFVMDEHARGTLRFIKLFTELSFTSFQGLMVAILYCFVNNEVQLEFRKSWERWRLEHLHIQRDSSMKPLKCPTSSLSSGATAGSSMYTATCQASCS

[2] = target: human glucagon receptor (GCGR) (human, UniProt P47871 26-477); assay: cell-based or functional assay

Row | hGLP1 pEC50 (cAMP) [1] [pEC50] | hGCGR pEC50 (cAMP) [2] [pEC50] | Binder
1 | < 9 | 11.7 | B1
2 | < 9 | 12.5 | B2
3 | < 9 | 11.5 | B3
